Data taken from patent publication US12123876B2, “Antibody binding to HEG1 and use of the antibody for detection and treatment of mesothelioma” (Kanagawa Prefectural Hospital Organization, priority 2016, dated 2024).

Legend:
SKM9-2 antibody = experiment: Western blot reactivity of human HEG1 fragments expressed in ACC-MESO-1 with SKM9-2 antibody; type: binding, mouse; settings: Western blot of cell lysate
Method: In this Example, the mesothelioma cell line ACC-MESO-1 was allowed to express a human HEG1 fragment with the endogenous HEG1 of ACC-MESO-1 knocked down, and the reactivity with the SKM9-2 antibody was examined. Subsequently, the reactivity with the antibody was tested for the epitope region through alanine scanning, and key amino acids for binding to the antibody were determined.
Gene transfer was performed with HEG1 siRNA (H9106) (SEQ ID NOs: 40, 41) and human HEG1 for the mesothelioma cell line ACC-MESO-1, and the reactivity of the SKM9-2 was examined through Western blot analysis. A full length protein (HEG1 full length) or a fragment (HEG1 3 kb, HEG1 2 kb, or HEG1 1 kb) of the human HEG1 was used. The full length human HEG1 protein, a protein having the amino acid sequence set forth in SEQ ID NO: 35, was obtained through inserting a base sequence set forth in SEQ ID NO: 34 into pFLAG-CMV1 (Sigma-Aldrich Japan K.K.) to obtain a plasmid, transforming the plasmid, and allowing the mesothelioma cell line to express the plasmid. Fragment HEG1 3 kb was obtained through inserting a fragment corresponding to a sequence from position 285, leucine, to position 1387, phenylalanine, of SEQ ID NO: 35 into pFLAG-CMV1 (Sigma-Aldrich Japan K.K.) in an in-frame manner, and allowing the mesothelioma cell line to express the resultant. HEG1 2 kb and HEG1 1 kb were obtained through allowing the mesothelioma cell line to express products similarly obtained from a fragment corresponding to a sequence from position 677, leucine, to position 1387, phenylalanine, of SEQ ID NO: 35 and a fragment corresponding to a sequence from position 992, valine, to position 1387, phenylalanine, of SEQ ID NO: 35, respectively. Each cell lysate was analyzed through Western blot with the SKM9-2 antibody.
Further, the region in exon 7 of HEG1 was analyzed in detail. The amino acid sequence of a part of exon 7 of HEG1 was connected to the N-terminal side of a protein obtained by connecting a GPI anchor signal to human SLURP1 (SEQ ID NO: 42; hereinafter referred to as “SLURPgpi”) to produce a fusion protein, and the reactivity of the SKM9-2 was examined through Western blot analysis with the fusion protein. A signal sequence (SEQ ID NO: 43) was added to the N-terminal of the fusion protein before expression.
Used fusion proteins of a partial sequence of exon 7 of HEG1 and SLURPgpi were as follows: • a fragment obtained by bonding a fragment from amino acid No. 783, aspartic acid, to amino acid No. 991, serine, to SLURPgpi (7.6); • a fragment obtained by bonding a fragment from amino acid No. 832, glutamine, to amino acid No. 991, serine, to SLURPgpi (7.7); • a fragment obtained by bonding a fragment from amino acid No. 886, glutamine, to amino acid No. 991, serine, to SLURPgpi (7.8); • a fragment obtained by bonding a fragment from amino acid No. 941, alanine, to amino acid No. 991, serine, to SLURPgpi (7.9); • a fragment obtained by bonding SEQ ID NO: 44 to SLURPgpi (7.61); • a fragment obtained by bonding SEQ ID NO: 45 to SLURPgpi (7.62); • a fragment obtained by bonding SEQ ID NO: 46 to SLURPgpi (7.63); • a fragment obtained by bonding SEQ ID NO: 47 to SLURPgpi (7.64); • a fragment obtained by bonding SEQ ID NO: 48 to SLURPgpi (7.623); • a fragment obtained by bonding SEQ ID NO: 49 to SLURPgpi (7.6231); • a fragment obtained by bonding SEQ ID NO: 50 to SLURPgpi (7.6232); • a fragment obtained by bonding SEQ ID NO: 51 to SLURPgpi (7.6241); and • a fragment obtained by bonding SEQ ID NO: 52 to SLURPgpi (7.6242).

[1] = tested on: HEG1 protein (purified from ACC-MESO4 or recombinant soluble HEG1); experiment: Western blot / dot blot reactivity of antibodies with HEG1 protein; type: binding, human; settings: Western blot, anti-human intelectin antibody-HRP as secondary antibody
Method: A massive amount of ACC-MESO4 was cultured, and purification of an antigen from the cell lysate was performed. Cells from 240 10-cm dishes were solubilized with 50 mM Tris buffer (pH 8.0) containing 1% TRITON™ X-100 (detergent), 1% CHAPS, 1 mM EDTA, 50 mM NaCl, and protease inhibitor (Complete, Roche Life Science), and then centrifuged. The resulting supernatant was dialyzed with 20 mM acetate buffer (pH 5.0) at 4° C. for 18 hours to afford an acidic precipitate. The precipitate was extracted with 20 mM Tris buffer (pH 7.2) containing 0.1% TWEEN® 20 (polyethylene glycol sorbitan monolaurate, polyoxyethylenesorbitan monolaurate) and 150 mM NaCl and centrifuged, and the resulting supernatant was concentrated by using an Amicon Ultra-15, 100 kDa (Merck Millipore) and subjected to solution exchange with 20 mM Tris buffer (pH 8.0) containing 6 M guanidine hydrochloride. To the concentrated solution, tris(2-carboxyethyl)phosphine hydrochloride with a final concentration of 10 mM was added, and the resultant was heated at 60° C. for 30 minutes, and iodoacetamide with a final concentration of 40 mM was then added thereto, and reacted at room temperature for 3 hours. The reaction solution was subjected to gel filtration chromatography (SUPEROSE® 6 INCREASE (prepacked column) 10/300 GL (GE Healthcare)) in 20 mM Tris buffer (pH 8.0) containing 6 M guanidine hydrochloride and 0.05% TWEEN® 20 (polyethylene glycol sorbitan monolaurate, polyoxyethylenesorbitan monolaurate), and fractions positive for dot blot were collected. The sample was dialyzed with 25 mM phosphate buffer (pH 7.0) containing 4 M urea and 0.05% TWEEN® 20 (polyethylene glycol sorbitan monolaurate, polyoxyethylenesorbitan monolaurate) at room temperature overnight, and applied to a Mono Q 5/50 GL (GE Healthcare). The column was washed with 25 mM phosphate buffer (pH 7.0) containing 4 M urea and 0.05% TWEEN® 20 (polyethylene glycol sorbitan monolaurate, polyoxyethylenesorbitan monolaurate), and thereafter elution was performed with an NaCl salt concentration gradient of 0 to 1 M. Fractions strongly positive for dot blot were collected, and dialyzed with 25 mM phosphate buffer (pH 7.2) containing 150 mM NaCl and 0.05% TWEEN® 20 (polyethylene glycol sorbitan monolaurate, polyoxyethylenesorbitan monolaurate) at room temperature overnight, and applied to 1 mL of WGA-SEPHAROSE® (wheat germ agglutinin-crosslinked, beaded-form of agarose) (J-OIL MILLS, Inc.). After washing with buffer, elution was performed with 25 mM phosphate buffer (pH 7.2) containing 0.2 M N-acetylglucosamine, 150 mM NaCl, and 0.05% TWEEN® 20 (polyethylene glycol sorbitan monolaurate, polyoxyethylenesorbitan monolaurate), and the eluent was concentrated with a Centricon (YM-30) (Millipore). Gel filtration chromatography (SUPEROSE® 6 INCREASE (prepacked column) 10/300 GL (GE Healthcare)) was performed in 25 mM phosphate buffer (pH 7.2) containing 3 M GdnHCI and 0.5% CHAPS, and fractions strongly positive for dot blot were dialyzed with 20 mM NH4HCO3 containing 0.5% CHAPS at room temperature overnight to afford a purified antigen.
The dot blot was performed as follows. A PVDF membrane (Immobilon-P, Merck Millipore) was soaked in methanol, and then washed and impregnated with pure water. The hydrophilized PVDF membrane was placed on a filter paper containing water to avoid air inclusion, removed of excessive moisture, and soaked with 1 to 5 μL of the sample in dots fed by a micropipette. After the membrane was dried at room temperature overnight, the membrane was hydrophilized again with methanol and pure water, and blocked with 20 mM Tris buffer (pH 7.4) containing 5% skim milk, 0.1% TWEEN® 20 (polyethylene glycol sorbitan monolaurate, polyoxyethylenesorbitan monolaurate), and 150 mM NaCl (blocking buffer) at room temperature for 1 hour. […]

Molecule | Binding to SKM9-2 antibody (positive/negative) (SKM9-2 antibody) | Binding to SKM9-2 antibody (positive/negative) (SKM9-2 antibody; listed as fragment 7.62) | Binding to SKM9-2 antibody (positive/negative) (SKM9-2 antibody; listed as fragment 7.623) | Recognition of glycosylated HEG1 protein [1] | Recognition of glycosylated HEG1 protein ([1]; listed as protein complex including VH regions and CH1 regions of SKM9-2 antibody fused to)
7.62: SEQ ID NO: 45 (EKVITESKSPSLVSLPTEST) bonded to SLURPgpi (protein) EKVITESKSPSLVSLPTESTGSLKCYTCKEPMTSASCRTITRCKPEDTACMTTLVTVEAEYPFNQSPVVTRSCSSSCVATDPDSIGAAHLIFCCFRDLCNSELSRDGAPSLGSPGGLLLALALFLLLGVLL | positive | positive signal | – | – | –
7.623: SEQ ID NO: 48 (SKSPSLVSLPTEST) bonded to SLURPgpi (protein) SKSPSLVSLPTESTGSLKCYTCKEPMTSASCRTITRCKPEDTACMTTLVTVEAEYPFNQSPVVTRSCSSSCVATDPDSIGAAHLIFCCFRDLCNSELSRDGAPSLGSPGGLLLALALFLLLGVLL | positive | – | positive signal | – | –
intelectin-fused antibody: VH and CH1 of SKM9-2 H chain fused to human intelectin positions 19-313, co-expressed with SKM9-2 L chains (protein) QVQLQQPGAELVRPGASVKLSCKASGFSFTTYWITWVKQRPGQGLEWIGMIHPSDSETRLSQTFKDKATLTVDKSSNTAYMQFSSPTSEDSAVYYCVRDFDVWGAGTTVTVSSAKTTPPSVYPLAPGSAAQTNSMVTLGCLVKGYFPEPVTVTWNSGSLSSGVHTFPAVLQSDLYTLSSSVTVPSSTWPSETVTCNVAHPASSTKVDKKIVPRDCGTDEANTYFKEWTCSSSPSLPRSCKEIKDECPSAFDGLYFLRTENGVIYQTFCDMTSGGGGWTLVASVHENDMRGKCTVGDRWSSQQGSKADYPEGDGNWANYNTFGSAEAATSDDYKNPGYYDIQAKDLGIWHVPNKSPMQHWRNSALLRYRTDTGFLQTLGHNLFGIYQKYPVKYGEGKCWTDNGPVIPVVYDFGDAQKTASYYSPYGQREFTAGFVQFRVFNNERAANALCAGMRVTGCNTEHHCIGGGGYFPEASPQQCGDFSGFDWSGYGTHVGYSSSREITEAAVLLFYR light: DVLMTQTPLSLPVSLGDQASISCRSSQNIVHNNGNTYLGWYLQKPGQSPKLLIFKVSNRFSGVPDRFSGSGSGTDFTLKISRVEAEDLGVYYCFQGSHIPRTFGGGTRLEIKRADAAPTVSIFPPSSEQLTSGGASVVCFLNNFYPKDINVKWKIDGSERQNGVLNSWTDQDSKDSTYSMSSTLTLTKDEYERHNSYTCEATHKTSTSPIVKSFNRNEC | – | – | – | recognized the glycosylated HEG1 protein | allows detection of HEG1 protein
